In the DeepSol protein solubility set:

Assay: soluble on expression in E. coli; label from the status in PepcDB or PDB records

Sequence | soluble on expression in E. coli
MKYISPGFVDAHSHIGMIPDGLEWEFQEANDFYSPIAPHLRAVDGFDPYDEAFKEAIAGGVTTVATGPGSANVMGGIGLLAKTYEEGFEKIIKPEAFIKMALGPKRPREYKSKYPYPTTRMGTVALMRTWFKRAREFMEGKIKTDNIDEEEIEMLRLLARALKREIQVKIHLSTSPDEIYAAIRIIKEFNLNATIDHAFGSQLVADMLSREGIPVIYGPPMITRIASFFRYVDDKAPVLLFKKGVNVSIMTDHPVLPEKHLRLLAAVVARNGLSLDDALKLITINPAKALGIDRFVGSLEHHHHHH | not soluble
MAKTLKTLYQCTECGGTSPKWQGKCPHCGEWNTLQESLAAPEPKNARFQSWAADTSTVQSLSAVTATEVPRNPTGMGELDRVLGGGLVDGAVILLGGDPGIGKSTLLLQTIAKMAQSRKVLYVSGEESAQQVALRAQRLELPTDGVNLLAEIRMEAIQAALKQHQPEVVVIDSIQTMYSDQITSAPGSVSQVRECAAQLTRMAKQMGIAMILVGHVTKDGAIAGPRVLEHMVDTVLYFEGDQHSNYRMIRAIKNRFGAANELGVFAMTENGLKGVSNPSAIFLASYRDDTPGSCVLVTQEGSRPLLVEIQALVDDAHGFTPKRLTVGLEQNRLAMLLAVLNRHGGIACFDQDVFLNAVGGV | not soluble
PNIADKGSVFYHFSATSFDSVDGTRHYRVWTAVPNTTAPASGYPILYMLDGNAVMDRLDDELLKQLSEKTPPVIVAVGYQTNLPFDLNSRAYDYTPAAESRKTDLHSGRFSRKSGGSNNFRQLLETRIAPKVEQGLNIDRQRRGLWGHSYGGLFVLDSWLSSSYFRSYYSASPSLGRGYDALLSRVTAVEPLQFCTKHLAIMEGSATQGDNRETHAVGVLSKIHTTLTILKDKGVNAVFWDFPNLGHGPMFNASFRQALLDISGENANYTAGCHELSH | soluble
MGSDKIHHHHHHMTTDSSNNRTISSKSTLSSKSIINVGPFTPHIEFIGQQQTPVIIIDDFGADLSQLIDIAIDDSQFNQDQGSYYPGQRAPLPKQYVIDVINAVYQLIYDTYKVPHSLRLKPQQCVFSVIDKPAQRLLPLQCMPHFDTPDPHYFAILHYLNNGDHGDTGFFRHNTTQYEQISPHNIDHYFNQAQPVVDAQQTLMPDYVVDSNDHYTLYHQVHYRPNRLVIYPGNLLHSTLVNPVTDIDSSPKTGRLTANIFINFK | not soluble
MGSDKIHHHHHHMRILYINHYAGSPRHGMEFRPYYLAREWVKAGHEVNMLAADVSHLRQTHPQVDGKYRDEDIDGIRYTWCKTRPYSGNGVGRVLNIFSFLAKVMGLSRRYLKEWQPDVVIASSTYPLDTVPAAWIAGKTGARLVYEVHDLWPLTPVEVGGMSPKHPFIRLLQWAEDFGYKRADTVVSMLPCARDYMMAHGMAAEKYAVIPNGVDVSEWQGETLPLSAEHRMRLAELKSHGRFIVGYAGGHGLANALDYLLEAAALMRDAPVTFVLVGDGPDKQALVSRAAELKLDNVMFLPSIAKRSVPAFLAECDALYIGWRKLPIYRFGINPNKLFDYMMAGKPVIHSVEAGNDMVKDAGAGLSIGVEDPAVIADAVKRMAVLPLAERETMGAAGKAYVLANHDYAVLARRFLAAVKL | not soluble
MAKKNNKTKIQKPEAALQTDVAQITATGRVIAEHPSNFITPQKMRALFEDAESGDIRAQHELFADIEERDSDIAANMGTRKRALLTLNWRVAPPRNATPEEEKLSDQAYEMMDSLPTLEDLIMDLMDAVGHGFSALEVEWVFSDGLYLPRNFIHRPQSWFKWDKDNGLLLRTRENPEGEALWPLGWVVHTQKSRSVQQARNGLFRTLSWLYMFKHYAVHDFAEFLELYGMPIRIGKYGAGATKEEKNTLLRAVAEIGHNAAGIMPEGMEIELHNAANGTTATSNPFLQMADWCEKSAARLILGQTLTSGADGKSSTNALGNIHNEVRRDLLVSDAKQVAQTITSQIIGPFLQINYPHADPNRVPKFEFDTREPKDIAVFADAIPKLVDVGVQIPESWVRDKLVIPDVQEGEAVLVRQVPDNPVNRTALAALSAHTVPSKATGRHQEILDGALDDALVEPDFNSQLNPMVRQAVAALNACNSYEEADAALNALYPNLDNAKLRTYMQQALFISDILGQDHARA | not soluble
MNNKRTKGENVYQLVQKRLKFLFNEFDNIYVSFSGGKDSGVLLNLCIQYIREHNLDRKIGVYHMDYEAQYQMTTEYVEQTFRENQDILEIYHVCVPFKVVTCASMFQTYWRPWDESMHAHWVRPMPKNCYKKEDFPFYNEEMWDYTFQTSFASWYHKKHDAVRTCCLVGIRTQESLDRWRTIHGNNRLNSYHNLMWTRRLGYDLYNAYPIYDWTTEDIWTAYARFKWPFNQMYELYYK | not soluble
MTTHLSNVAPDLQNYLNAIGEPEHPVLTRLREKTGHHRMGKMAIAREQAAVLVWLAKLIRAEKYLEIGVFTGYSSTALALALPEHGRITACDINVTFTDTARQVWNEAGVAHKISLHLQPALLTLDDLIAQGEAGSYDLALIDADKPPTPQYFERCLKLVRQGGIIAIDNILLNGRVMREAASDAPPSVGILKDFNQNLPNDPRIVPITLPVGDGLTLLLKK | not soluble
MVQDQIRYDILVQDALRGVIRKVLSEVAKAGLPGSHHFFITFLTNAPGVKISTRLKSRYPEQMTIVLQHQFRDLNVSETAFEVTLSFREVSEKLVIPFHSIQVFYDPVAAFEAAFDLPSNLNSKEGENLENIASTPVILSDTQKKEKKFPKEQISKTNKDSSNNDTKQSADVVSLDSFRKK | not soluble
MKLYYSPGACSLSPHIALREAGLNFELVQVDLASKKTASGQDYLEVNPAGYVPCLQLDDGRTLTEGPAIVQYVADQVPGKQLAPANGSFERYHLQQWLNFISSELHKSFSPLFNPASSDEWKNAVRQSLNTRLGQVARQLEHAPYLLGDQLSVADIYLFVVLGWSAYVNIDLSPWPSLQAFQGRVGGREAVQSALRAEGLIKE | soluble
SAVDRDIFGISGPTYLNPVNWNCEHNRRSVAACLVQAVYVLERDRQLGRQSVEALGPPWWEFFHFELIRKLVDDADLSIFGAIFEFNPPSSKESSADNAPRFVIAFRGTITEKETISRDIALDLHLVQNGLHRTSRFTIAMQAVQNVASVFPGSNIWLAGHSLGAGMAILTGRNMVKKGVLLESYLFNPPFVAAPIERISDERVKHGFRIARSVITAGLAIAMKGKGEGSSQRSVAEDSFHILSSWTPYLFVNPGDHICSEYIGYFQHRKNMEDLGAGFIEKLATQNSIGDLFYKALGWESEPLHLLPSADLIVNVSPSPDFKYAHGISQWWQPELNLQCSKYRYSVGA | soluble
MSLKKIDGHAHIVDTIAGFNGKGRLNALGNGYAIWDDGDLIKLIPDEYGDKAFTAEAFLKYMDANGVDKAVILQGHLNGYQNYYTHLAIKRYPERFTGAFSVDPFADNAMQIVKRHVEVLGFRAIKFEISQGGGIHGYRGQKTPFRLDTDPHVSRILTYLLDYPGFVVTVDYGNWDQISHQPDAIANLARLYTSLDFVVCHLSFPHVEHSNRLRAELNMWKNFNNIYTDISAIQDIDAPDSFPFPKSEQNVRIAKEVLGAKRIIWGTDSPWSATFNTYEELATWLENVDIFSQEELEDVMYNNAERVYFKEEHVKANRAGIDDTTKELNLYEGHHHHHH | soluble
MTTYPADTPIITQPPSPDSPSSSNGSSTSLSENLNNNSVSNQIEYVNQNNNSDNFTVGLGFLGASGNYGNYSSHLNNNLSISQNQSVSLNSSSSSVGAGLTPGNGSVGSTSNSSSAASSIQNIGLNSSLINSNTNNLSSSSHSMSGSNNNNSNNNVVNNYLTVYGNNGSSGGGSGSGGGSGPGADSPRIHCCRPCCPYSHHRRLCDPCYCSNRPESHRDSSSSEEVNDAQSDENTYFQFDFIGVDGHHARRVLPPSWRILRNSKAESSDESSLSDAVQTVDLPKIPQKKIRCVYSIDAEEIEGKKCMLECIRSSCLPRYVECHRRRRCSRKQRCHTTTQPPSPTTESLPTSTTTYEMNTTSLETSTTDISTITSTEEPISTTVKTHEQSSTSGMEFSTMSTTYEPITTTLETSTTDISIITSTEEPDTSTTTESNEQSSTTGMEFSTMSTTYEPITTSLETSTTDMLTNTSTEEPDISTTIEPNAQSTTYEMESSTVSVTYEPETTSLETSSTKVSSTTATGEPASTTMEANEHSSTFETESSTVPATNEPITTSFIPSTTDLSIITSTEEAKISTTMETDELSTTTESSYSTTQFTTFKIPTSSFSTLPMEGTSTKEQTTLSTEETSSATTATIFEKLSTTLFFEETQVTSTSDFTSSPRSIETTRVIEFDTSTELQTTSKTSTTTEDTTTVGTTTEMEMRRFWRLFG | not soluble
